Source: US20180021429A1, “ANTICANCER AGENTS OR ANTIMETASTATIC AGENTS USING FSTL1 AND COMBINATION DRUG THEREOF” (PHARMA FOODS INTERNATIONAL CO., LTD., priority 2015, published 2018)
Entries after “also recorded” stand apart in the source; their conditions may differ.

Tests used:
[1] = target: T1, FSTL1 (Homo sapiens, UniProt Q12841); assay: Inhibition of MSC induction by FSTL1 in mouse bone marrow cells, CD45-negative cells (Examples 6, 8, 12); format: cell-based; set-up: purchased R&D Systems, Inc. 1694-FN-050; settings: Example 12; FSTL1 20 ng/mL, antibody 10 μg/mL, 8 days
T1 sequence (Q12841 21-308): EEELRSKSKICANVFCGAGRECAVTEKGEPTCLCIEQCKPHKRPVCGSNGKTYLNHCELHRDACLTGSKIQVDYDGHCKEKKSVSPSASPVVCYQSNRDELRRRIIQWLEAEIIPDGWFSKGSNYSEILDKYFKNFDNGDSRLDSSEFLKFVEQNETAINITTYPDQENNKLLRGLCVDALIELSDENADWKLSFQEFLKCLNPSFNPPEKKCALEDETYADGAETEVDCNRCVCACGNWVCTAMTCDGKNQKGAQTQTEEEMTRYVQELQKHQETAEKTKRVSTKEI
Procedure, shortened: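 Mouse bone marrow cells cultured under stimulation with FSTL1 (50 or 20 ng/mL final) plus 10 μg/mL anti-FSTL1 antibody or anti-DNP control. After 11 days (50 ng/mL) or 8 days (20 ng/mL), cells counted and CD45-negative fraction measured by flow cytometry as MSC percentage and number per culture.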

[2] = system: induction of mesenchymal stem cells (MSCs) by FSTL1; assay: Inhibitory activity against induction of MSC by FSTL1, CD45-negative cells (Examples 6, 8, 12); format: cell-based, mouse; settings: Example 12, FIG. 7/37; FSTL1 20 ng/mL; antibody 10 μg/mL; 8 days

B1: #8-7: chicken-mouse chimeric anti-FSTL1 antibody clone; variable regions SEQ ID NO: 799 (light), 801 (heavy) (antibody, V domains shown)
VH: AVTLDESGGGLQTPGGGLSLVCKGSGFTFSSFNMFWVRQAPGKGLEWVAGIGKDGVPKYGAAVDGRATISKDNGQSTLRLQLNNLRAEDTGTYFCAKAAGGCSYDWCGIYAGDIDTWGHGTEVIVSS
VL: ASTQPSSVSANPGEAVKITCSGGSGSYYGWYQQKSPGSAPVTVIYNNNQRPSDIPSRFSGSKSGSTATLTITGVQAEDEAVYFCGGYDSSTGHGGIFGAGTTLTVL
modifications: mouse constant regions
inhibitory activity against the expansion of CD45-negative cells by FSTL1 [1]: stronger inhibitory activity was confirmed in the order of clone #7-34, #5-2, 46-55, and #8-7; also recorded: higher inhibitory activity was confirmed in the order of #7-34, #5-2, #6-55, and #8-7; also recorded: stronger inhibitory activity was confirmed in the order of clone #7-34, #5-2, 96-55, and #8-7 | inhibitory activity against the expansion of CD45-negative cells by FSTL1 [2]: higher inhibitory activity was confirmed in the order of #7-34, #5-2, #6-55, and #8-7; also recorded: stronger inhibitory activity was confirmed in the order of clone #7-34, #5-2, 46-55, and #8-7
